Columns and labels:
[1] = test system: primary human cell cultures (11 cell types); assay: Custom gene array, 11 human cell types in normoxia or hypoxia for 6 hr and 18 hr; format: cell-based
Experimental: Equivalent cultures of non-immortalized, non-transformed primary human cells of 10 distinct types, were cultured in either normoxia or were exposed to hypoxia for 6 hr and 18 hr, and gene expression changes were determined. […] Moreover, unlike the vast majority of information in the public domain relating to genes responsive to hypoxia, all of these cells were human and were cultured without any modifications following isolation from the human donors.
A non-primary cell type (#9) was used to represent neurons, since primary human neurons are difficult to source. Therefore a total of 11 cell types are compared. It should be noted that RNA from hepatocytes at the […] timepoint of hypoxia was not available for this work.
Each RNA sample was hybridised to duplicate or triplicate arrays, to ensure reproducible data, and was analysed using GeneSpring software. Data from replicate arrays were merged during analysis to generate mean values. Data normalisation was achieved per-array using the aforementioned list of control genes, such that differences in RNA labelling or hybridization due to experimental variation were corrected by referencing each gene to the mean value of the reference genes on the same array. Also, for each gene, expression values were obtained which represent the value in each experimental condition (e.g. macrophages 6 hr hypoxia) as compared to the median of value of that gene throughout the full range of experimental conditions (i.e. from all cell types). […] This is common in microarray data analysis.

[2] = test system: human breast and ovary tumors; assay: Custom gene array, breast and ovary tumors versus normal adjacent tissue; conditions: Table 19; for gene expression level on custom gene array, Breast nor H / gene expression level on custom gene array, Breast nor K / gene expression level on custom gene array, Ovary nor E / gene expression level on custom gene array, Ovary nor F / gene expression level on custom gene array, Ovary nor G: normal adjacent tissue; for gene expression level on custom gene array, Breast nor H / gene expression level on custom gene array, Breast tum H: patient H; for gene expression level on custom gene array, Breast nor K / gene expression level on custom gene array, Breast tum K: patient K; for gene expression level on custom gene array, Breast tum H / gene expression level on custom gene array, Breast tum K / gene expression level on custom gene array, Ovary tum E / gene expression level on custom gene array, Ovary tum F / gene expression level on custom gene array, Ovary tum G: tumor tissue; for gene expression level on custom gene array, Ovary nor E / gene expression level on custom gene array, Ovary tum E: patient E; for gene expression level on custom gene array, Ovary nor F / gene expression level on custom gene array, Ovary tum F: patient F; for gene expression level on custom gene array, Ovary nor G / gene expression level on custom gene array, Ovary tum G: patient G
From the text: A study has been performed to examine the expression of these genes in a selection of breast and ovary tumors, comparing expression with normal adjacent tissue from the same patient. There is expected to be a large degree of variation between different patients, and the study here contains only 5 patients with a range of diagnoses.
Patients are designated as Letters:
E: person. Diagnosis: ovarian adenocarcinoma. Normal ovarian tissue derived from an age-matched separate individual.
: person. Diagnosis: poorly differentiated adenocarcinoma. Normal ovarian tissue derived from the same individual.
G: person. Diagnosis: moderately-differentiated adenocarcinoma. Normal ovarian tissue derived from the same individual.
H: person. Diagnosis: invasive ductal carcinoma. Normnal breast tissue derived from the same individual.
K: person. Diagnosis: invasive ductal carcinoma. Normal breast tissue derived from the same individual.
Data normalisation was done per-chip to correct for differences in labelling and hybridization efficiency. Per-gene normalisation was done such that the expression values of each gene are relative to the median value of that gene throughout the series of samples. By comparing the expression values under normal (nor) and tumor (turn) for a single patient, differences in expression between the normal and malignant tissue of that patient can be inferred.

Molecule | gene expression level on custom gene array, Breast nor H [2] | gene expression level on custom gene array, Breast nor K [2] | gene expression level on custom gene array, Breast tum H [2] | gene expression level on custom gene array, Breast tum K [2] | gene expression level on custom gene array, Ovary nor E [2] | gene expression level on custom gene array, Ovary nor F [2] | gene expression level on custom gene array, Ovary nor G [2] | gene expression level on custom gene array, Ovary tum E [2] | gene expression level on custom gene array, Ovary tum F [2] | gene expression level on custom gene array, Ovary tum G [2] | further results
p2A23 (nucleic acid, listed as Homo Sapiens) DNA: AGAAGAAGCTGGCCAAGGATATGGGAGCAACCACCATGGACCAGAAGTCTCTCTGGGCAGGTGTAGTGGTCTTGCTGCTTCTCCAGGGAGGATCTGCCTACAAACTGGTTTGCTACTTTACCAACTGGTCCCAGGACCGGCAGGAACCAGGAAAATTCACCCCTGAGAATATTGACCCCTTCCTATGCTCTCATCTCATCTATTCATTCGCCAGCATCGAAAACAACAAGGTTATCATCAAGGACAAGAGTGAAGTGATGCTCTACCAGACCATCAACAGTCTCAAAACCAAGAATCCCAAACTGAAAATTCTCTTGTCCATTGGAGGGTACCTGTTTGGTTCCAAAGGGTTCCACCCTATGGTGGATTCTTCTACATCACGCTTGGAATTCATTAACTCCATAATCCTGTTTCTGAGGAACCATAACTTTGATGGACTGGATGTAAGCTGGATCTACCCAGATCAGAAAGAAAACACTCATTTCACTGTGCTGATTCATGAGTTAGCAGAAGCCTTTCAGAAGGACTTCACAAAATCCACCAAGGAAAGGCTTCTCTTGACTGCGGGCGTATCTGCAGGGAGGCAAATGATTGATAACAGCTATCAAGTTGAGAAACTGGCAAAAGATCTGGATTTCATCAACCTCCTGTCCTTTGACTTCCATGGGTCTTGGGAAAAGCCCCTTATCACTGGCCACAACAGCCCTCTGAGCAAGGGGTGGCAGGACAGAGGGCCAAGCTCCTACTACAATGTGGAATATGCTGTGGGGTACTGGATACATAAGGGAATGCCATCAGAGAAGGTGGTCATGGGCATCCCCACATATGGGCACTCCTTCACACTGGCCTCTGCAGAAACCACCGTGGGGGCCCCTGCCTCTGGCCCTGGAGCTGCTGGACCCATCACAGAGTCTTCAGGCTTCCTGGCCTATTATGAGATCTGCCAGTTCCTGAAAGGAGCCAAGATCACGCGCCTCCAGGATCAGCAGGTTCCCTACGCAGTCAAGGGGAACCAGTGGGTGGGCTATGATGATGTGAAGAGTATGGAGACCAAGGTTCAGTTCTTAAAGAATTTAAACCTGGGAGGAGCCATGATCTGGTCTATTGACATGGATGACTTCACTGGCAAATCCTGCAACCAGGGCCCTTACCCTCTTGTCCAAGCAGTCAAGAGAAGCCTTGGCTCCTTGTGAAGGATTAACTTACAGAGAAGCAGGCAAGATGACCTTGCTGCCTGGGGCCTGCTCTCTCCCAGGAATTCTCATGTGGGATTCCCCTTGCCAGGCTGGCCTTTGGATCTCTCTTCCAAGCCTTTCCTGACTTCCTCTTAGATCATAGATTGGACCTGGTTTTGTTTTCCTGCAGCTGTTGACTTGTTGCCCTGAAGTACAATAAAAAAAATTCATTTTGCTCCAGTA | 1.36 | 0.91 | 2.22 | 2.01 | 0.66 | 0.48 | 4.18 | 0.78 | 0.61 | 0.74 | mRNA expression level ([1]; cell type #1, HY (hypoxia) 6 hr): 1.24; mRNA expression level ([1]; cell type #1, HY (hypoxia) 18 hr): 1.15; mRNA expression level ([1]; cell type #1, NO (normoxia)): 1.79; mRNA expression level ([1]; cell type #2, HY (hypoxia) 6 hr): 2.26; mRNA expression level ([1]; cell type #2, HY (hypoxia) 18 hr): 1.79; mRNA expression level ([1]; cell type #2, NO (normoxia)): 1.81; mRNA expression level ([1]; cell type #3, HY (hypoxia) 6 hr): 1.28; mRNA expression level ([1]; cell type #3, HY (hypoxia) 18 hr): 0.95; mRNA expression level ([1]; cell type #3, NO (normoxia)): 1.11; mRNA expression level ([1]; cell type #4, HY (hypoxia) 6 hr): 0.87; mRNA expression level ([1]; cell type #4, HY (hypoxia) 18 hr): 0.77; mRNA expression level ([1]; cell type #4, NO (normoxia)): 1.26; mRNA expression level ([1]; cell type #5, HY (hypoxia) 6 hr): 1.43; mRNA expression level ([1]; cell type #5, NO (normoxia)): 0.77; mRNA expression level ([1]; cell type #6, HY (hypoxia) 6 hr): 0.91; mRNA expression level ([1]; cell type #6, NO (normoxia)): 0.76
p1K9 (nucleic acid, listed as Homo Sapiens) DNA: AGTGTGAAATCTTCAGAGAAGAATTTCTCTTTAGTTCTTTGCAAGAAGGTAGAGATAAAGACACTTTTTCAAAAATGGCAATGGTATCAGAATTCCTCAAGCAGGCCTGGTTTATTGAAAATGAAGAGCAGGAATATGTTCAAACTGTGAAGTCATCCAAAGGTGGTCCCGGATCAGCGGTGAGCCCCTATCCTACCTTCAATCCATCCTCGGATGTCGCTGCCTTGCATAAGGCCATAATGGTTAAAGGTGTGGATGAAGCAACCATCATTGACATTCTAACTAAGCGAAACAATGCACAGCGTCAACAGATCAAAGCAGCATATCTCCAGGAAACAGGAAAGCCCCTGGATGAAACACTTAAGAAAGCCCTTACAGGTCACCTTGAGGAGGTTGTTTTAGCTCTGCTAAAAACTCCAGCGCAATTTGATGCTGATGAACTTCGTGCTGCCATGAAGGGCCTTGGAACTGATGAAGATACTCTAATTGAGATTTTGGCATCAAGAACTAACAAAGAAATCAGAGACATTAACAGGGTCTACAGAGAGGAACTGAAGAGAGATCTGGCCAAAGACATAACCTCAGACACATCTGGAGATTTTCGGAACGCTTTGCTTTCTCTTGCTAAGGGTGACCGATCTGAGGACTTTGGTGTGAATGAAGACTTGGCTGATTCAGATGCCAGGGCCTTGTATGAAGCAGGAGAAAGGAGAAAGGGGACAGACGTAAACGTGTTCAATACCATCCTTACCACCAGAAGCTATCCACAACTTCGCAGAGTGTTTCAGAAATACACCAAGTACAGTAAGCATGACATGAACAAAGTTCTGGACCTGGAGTTGAAAGGTGACATTGAGAAATGCCTCACAGCTATCGTGAAGTGCGCCACAAGCAAACCAGCTTTCTTTGCAGAGAAGCTTCATCAAGCCATGAAAGGTGTTGGAACTCGCCATAAGGCATTGATCAGGATTATGGTTTCCCGTTCTGAAATTGACATGAATGATATCAAAGCATTCTATCAGAAGATGTATGGTATCTCCCTTTGCCAAGCCATCCTGGATGAAACCAAAGGAGATTATGAGAAAATCCTGGTGGCTCTTTGTGGAGGAAACTAAACATTCCCTTGATGGTCTCAAGCTATGATCAGAAGACTTTAATTATATATTTTCATCCTATAAGCTTAAATAGGAAAGTTTCTTCAACAGGATTACAGTGTAGCTACCTACATGCTGAAAAATATAGCCTTTAAATCATTTTTATATTATAACTCTGTATAATAGAGATAAGTCCATTTTTTAAAAATGTTTTCCCCAAACCATAAAACCCTATACAAGTTGTTCTAGTAACAATACATGAGAAAGATGTCTATGTAGCTGAAAATAAAATGACGTCACAAGAC | 1.20 | 0.23 | 0.54 | 0.12 | 0.46 | 1.33 | 1.07 | 4.09 | 1.17 | 0.31 | –

— US20030203372A1, “Analysis method” (priority 2000, published 2003)
